In the assay the target is T1, FcγRIa extracellular domain with C-terminal His tag (human, UniProt P12314 16-292).
T1 construct: extracellular domain; also called FcgRI; CD64; not shown: His tag at the C terminus
As to the kind of experiment: SPR Biacore, relative FcγRIa binding vs GpH7-B3/GpL16-k0. A general note: SPR reads the build-up and loss of mass on a sensor chip optically.

T1 sequence (P12314 16-292): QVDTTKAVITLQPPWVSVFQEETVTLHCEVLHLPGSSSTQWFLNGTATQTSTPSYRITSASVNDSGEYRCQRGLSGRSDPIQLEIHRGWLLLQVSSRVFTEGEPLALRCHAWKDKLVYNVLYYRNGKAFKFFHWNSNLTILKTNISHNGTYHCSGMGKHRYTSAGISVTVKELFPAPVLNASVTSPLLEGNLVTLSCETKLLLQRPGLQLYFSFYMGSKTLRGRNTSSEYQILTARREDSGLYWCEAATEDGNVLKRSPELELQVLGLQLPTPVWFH

B1: GpH7-B3 variant S324_15Y/GpL16-k0 (antibody, human IgG1, kappa)
heavy: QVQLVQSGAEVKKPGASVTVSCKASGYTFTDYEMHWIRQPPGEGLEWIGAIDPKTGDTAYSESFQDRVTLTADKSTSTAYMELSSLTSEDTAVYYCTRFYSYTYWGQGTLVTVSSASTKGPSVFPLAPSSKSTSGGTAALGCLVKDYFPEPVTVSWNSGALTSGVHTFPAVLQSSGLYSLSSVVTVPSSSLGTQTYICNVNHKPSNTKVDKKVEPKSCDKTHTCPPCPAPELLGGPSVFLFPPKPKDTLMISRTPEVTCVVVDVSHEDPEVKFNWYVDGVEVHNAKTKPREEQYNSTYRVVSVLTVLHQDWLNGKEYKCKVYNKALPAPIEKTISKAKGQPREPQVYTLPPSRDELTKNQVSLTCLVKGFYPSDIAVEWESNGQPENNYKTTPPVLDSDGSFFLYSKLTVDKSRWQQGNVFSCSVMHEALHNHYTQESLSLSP
light: DIVMTQSPLSLPVTPGEPASISCQASESLVHSNRNTYLHWYLQKPGQSPQLLIYKVSNRFSGVPDRFSGSGSGTDFTLKISRVEAEDVGVYYCSQNTHVPPTFGQGTKVEIERTVAAPSVFIFPPSDEQLKSGTASVVCLLNNFYPREAKVQWKVDNALQSGNSQESVTEQDSKDSTYSLSSTLTLSKADYEKHKVYACEVTHQGLSSPVTKSFNRGEC
notes: mutation in both H chains; also called Ho Ab S324_15Y; S324Y
For the molecule B1, the Ho/Con_1a is 112 % of HoCon Ab (=100).

B2: GpH7-B3 variant S324_18N/GpL16-k0 (antibody, human IgG1, kappa)
heavy: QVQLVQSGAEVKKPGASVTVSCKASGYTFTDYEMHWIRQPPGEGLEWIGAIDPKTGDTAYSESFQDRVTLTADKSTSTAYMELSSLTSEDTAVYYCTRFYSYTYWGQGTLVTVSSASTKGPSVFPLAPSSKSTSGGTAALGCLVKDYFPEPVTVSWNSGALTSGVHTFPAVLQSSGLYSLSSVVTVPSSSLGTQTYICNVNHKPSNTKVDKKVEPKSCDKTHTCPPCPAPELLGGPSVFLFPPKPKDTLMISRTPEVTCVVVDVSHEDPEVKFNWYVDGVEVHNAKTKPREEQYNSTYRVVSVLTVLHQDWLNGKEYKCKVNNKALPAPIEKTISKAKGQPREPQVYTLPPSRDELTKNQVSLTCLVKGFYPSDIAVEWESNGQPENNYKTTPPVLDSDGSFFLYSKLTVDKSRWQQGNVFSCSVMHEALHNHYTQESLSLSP
light: DIVMTQSPLSLPVTPGEPASISCQASESLVHSNRNTYLHWYLQKPGQSPQLLIYKVSNRFSGVPDRFSGSGSGTDFTLKISRVEAEDVGVYYCSQNTHVPPTFGQGTKVEIERTVAAPSVFIFPPSDEQLKSGTASVVCLLNNFYPREAKVQWKVDNALQSGNSQESVTEQDSKDSTYSLSSTLTLSKADYEKHKVYACEVTHQGLSSPVTKSFNRGEC
notes: mutation in both H chains; also called Ho Ab S324_18N; S324N
Consider B2, for which the Ho/Con_1a was 111 % of HoCon Ab (=100).

B3: GpH7-B3 variant S337_06M/GpL16-k0 (antibody, human IgG1, kappa)
heavy: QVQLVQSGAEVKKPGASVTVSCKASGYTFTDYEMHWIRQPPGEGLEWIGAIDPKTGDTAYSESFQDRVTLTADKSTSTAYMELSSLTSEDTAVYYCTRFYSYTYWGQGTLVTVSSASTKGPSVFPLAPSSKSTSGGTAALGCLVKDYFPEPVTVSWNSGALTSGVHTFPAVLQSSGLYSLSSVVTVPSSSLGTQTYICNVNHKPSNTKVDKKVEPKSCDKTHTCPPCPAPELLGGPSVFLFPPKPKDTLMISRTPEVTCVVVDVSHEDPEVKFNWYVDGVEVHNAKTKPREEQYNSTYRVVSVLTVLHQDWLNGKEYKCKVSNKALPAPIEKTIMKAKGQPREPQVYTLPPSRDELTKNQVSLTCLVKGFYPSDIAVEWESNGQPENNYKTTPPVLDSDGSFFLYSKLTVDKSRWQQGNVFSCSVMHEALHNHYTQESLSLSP
light: DIVMTQSPLSLPVTPGEPASISCQASESLVHSNRNTYLHWYLQKPGQSPQLLIYKVSNRFSGVPDRFSGSGSGTDFTLKISRVEAEDVGVYYCSQNTHVPPTFGQGTKVEIERTVAAPSVFIFPPSDEQLKSGTASVVCLLNNFYPREAKVQWKVDNALQSGNSQESVTEQDSKDSTYSLSSTLTLSKADYEKHKVYACEVTHQGLSSPVTKSFNRGEC
notes: mutation in both H chains; also called Ho Ab S337_06M; S337M
Regarding B3, the Ho/Con_1a is 102 % of HoCon Ab (=100).

B4: GpH7-B3 variant S337_09D/GpL16-k0 (antibody, human IgG1, kappa)
heavy: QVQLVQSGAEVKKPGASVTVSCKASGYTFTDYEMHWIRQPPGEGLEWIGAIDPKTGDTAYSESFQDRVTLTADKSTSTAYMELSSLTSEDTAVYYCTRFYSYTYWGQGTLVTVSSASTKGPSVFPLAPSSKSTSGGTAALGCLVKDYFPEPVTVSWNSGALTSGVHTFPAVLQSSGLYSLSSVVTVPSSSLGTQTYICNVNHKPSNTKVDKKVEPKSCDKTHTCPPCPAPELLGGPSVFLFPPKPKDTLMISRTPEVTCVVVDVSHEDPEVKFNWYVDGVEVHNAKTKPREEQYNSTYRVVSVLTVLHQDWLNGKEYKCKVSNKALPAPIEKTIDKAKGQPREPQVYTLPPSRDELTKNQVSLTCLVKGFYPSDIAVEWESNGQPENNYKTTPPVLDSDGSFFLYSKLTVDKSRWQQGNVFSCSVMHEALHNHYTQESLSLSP
light: DIVMTQSPLSLPVTPGEPASISCQASESLVHSNRNTYLHWYLQKPGQSPQLLIYKVSNRFSGVPDRFSGSGSGTDFTLKISRVEAEDVGVYYCSQNTHVPPTFGQGTKVEIERTVAAPSVFIFPPSDEQLKSGTASVVCLLNNFYPREAKVQWKVDNALQSGNSQESVTEQDSKDSTYSLSSTLTLSKADYEKHKVYACEVTHQGLSSPVTKSFNRGEC
notes: mutation in both H chains; also called Ho Ab S337_09D; S337D
Turning to B4, the Ho/Con_1a is 106 % of HoCon Ab (=100).

B5: GpH7-B3 variant T335_04F/GpL16-k0 (antibody, human IgG1, kappa)
heavy: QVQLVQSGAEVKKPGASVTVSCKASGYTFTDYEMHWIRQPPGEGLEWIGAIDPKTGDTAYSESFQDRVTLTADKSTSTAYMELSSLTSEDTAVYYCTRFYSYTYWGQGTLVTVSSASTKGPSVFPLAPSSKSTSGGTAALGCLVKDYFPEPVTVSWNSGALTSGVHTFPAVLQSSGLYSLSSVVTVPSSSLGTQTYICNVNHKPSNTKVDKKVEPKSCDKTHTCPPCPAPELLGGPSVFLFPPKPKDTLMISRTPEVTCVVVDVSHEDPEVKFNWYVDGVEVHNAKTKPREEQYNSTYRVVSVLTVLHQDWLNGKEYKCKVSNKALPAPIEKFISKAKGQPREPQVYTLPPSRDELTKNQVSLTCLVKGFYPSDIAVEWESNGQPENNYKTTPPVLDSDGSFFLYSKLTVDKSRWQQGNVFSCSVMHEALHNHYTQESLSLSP
light: DIVMTQSPLSLPVTPGEPASISCQASESLVHSNRNTYLHWYLQKPGQSPQLLIYKVSNRFSGVPDRFSGSGSGTDFTLKISRVEAEDVGVYYCSQNTHVPPTFGQGTKVEIERTVAAPSVFIFPPSDEQLKSGTASVVCLLNNFYPREAKVQWKVDNALQSGNSQESVTEQDSKDSTYSLSSTLTLSKADYEKHKVYACEVTHQGLSSPVTKSFNRGEC
notes: mutation in both H chains; also called Ho Ab T335_04F; T335F
In the case of B5, the Ho/Con_1a was 105 % of HoCon Ab (=100).

B6: GpH7-B3 variant T335_06M/GpL16-k0 (antibody, human IgG1, kappa)
heavy: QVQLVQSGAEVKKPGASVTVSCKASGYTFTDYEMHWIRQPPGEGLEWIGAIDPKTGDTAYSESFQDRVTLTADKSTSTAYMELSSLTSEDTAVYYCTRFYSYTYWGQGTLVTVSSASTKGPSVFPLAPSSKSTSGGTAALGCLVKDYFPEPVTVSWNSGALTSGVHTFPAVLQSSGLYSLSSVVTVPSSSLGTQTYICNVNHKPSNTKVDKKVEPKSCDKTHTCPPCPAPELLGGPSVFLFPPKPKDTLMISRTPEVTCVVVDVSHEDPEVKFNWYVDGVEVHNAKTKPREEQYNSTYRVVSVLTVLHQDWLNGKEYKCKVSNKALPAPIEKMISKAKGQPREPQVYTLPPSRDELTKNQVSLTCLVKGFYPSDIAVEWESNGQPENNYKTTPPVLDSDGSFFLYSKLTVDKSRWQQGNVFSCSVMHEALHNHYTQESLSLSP
light: DIVMTQSPLSLPVTPGEPASISCQASESLVHSNRNTYLHWYLQKPGQSPQLLIYKVSNRFSGVPDRFSGSGSGTDFTLKISRVEAEDVGVYYCSQNTHVPPTFGQGTKVEIERTVAAPSVFIFPPSDEQLKSGTASVVCLLNNFYPREAKVQWKVDNALQSGNSQESVTEQDSKDSTYSLSSTLTLSKADYEKHKVYACEVTHQGLSSPVTKSFNRGEC
notes: mutation in both H chains; also called Ho Ab T335_06M; T335M
For B6, the Ho/Con_1a was 106 % of HoCon Ab (=100).

B7: GpH7-B3 variant S337_08L/GpL16-k0 (antibody, human IgG1, kappa)
heavy: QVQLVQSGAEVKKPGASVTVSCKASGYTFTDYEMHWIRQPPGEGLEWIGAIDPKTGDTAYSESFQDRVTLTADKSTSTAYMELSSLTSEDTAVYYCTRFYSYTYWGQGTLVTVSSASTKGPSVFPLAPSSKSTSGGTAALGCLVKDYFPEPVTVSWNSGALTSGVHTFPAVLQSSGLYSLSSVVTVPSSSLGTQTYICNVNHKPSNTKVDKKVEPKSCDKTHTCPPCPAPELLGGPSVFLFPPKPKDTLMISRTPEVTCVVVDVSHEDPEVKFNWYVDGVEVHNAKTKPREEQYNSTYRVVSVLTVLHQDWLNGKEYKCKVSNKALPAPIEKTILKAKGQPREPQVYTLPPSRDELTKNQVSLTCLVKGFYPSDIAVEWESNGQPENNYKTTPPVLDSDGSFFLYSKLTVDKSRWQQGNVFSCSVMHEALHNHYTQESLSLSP
light: DIVMTQSPLSLPVTPGEPASISCQASESLVHSNRNTYLHWYLQKPGQSPQLLIYKVSNRFSGVPDRFSGSGSGTDFTLKISRVEAEDVGVYYCSQNTHVPPTFGQGTKVEIERTVAAPSVFIFPPSDEQLKSGTASVVCLLNNFYPREAKVQWKVDNALQSGNSQESVTEQDSKDSTYSLSSTLTLSKADYEKHKVYACEVTHQGLSSPVTKSFNRGEC
notes: mutation in both H chains; also called Ho Ab S337_08L; S337L
In the case of B7, the Ho/Con_1a is 105 % of HoCon Ab (=100).

B8: GpH7-B3 variant S337_07I/GpL16-k0 (antibody, human IgG1, kappa)
heavy: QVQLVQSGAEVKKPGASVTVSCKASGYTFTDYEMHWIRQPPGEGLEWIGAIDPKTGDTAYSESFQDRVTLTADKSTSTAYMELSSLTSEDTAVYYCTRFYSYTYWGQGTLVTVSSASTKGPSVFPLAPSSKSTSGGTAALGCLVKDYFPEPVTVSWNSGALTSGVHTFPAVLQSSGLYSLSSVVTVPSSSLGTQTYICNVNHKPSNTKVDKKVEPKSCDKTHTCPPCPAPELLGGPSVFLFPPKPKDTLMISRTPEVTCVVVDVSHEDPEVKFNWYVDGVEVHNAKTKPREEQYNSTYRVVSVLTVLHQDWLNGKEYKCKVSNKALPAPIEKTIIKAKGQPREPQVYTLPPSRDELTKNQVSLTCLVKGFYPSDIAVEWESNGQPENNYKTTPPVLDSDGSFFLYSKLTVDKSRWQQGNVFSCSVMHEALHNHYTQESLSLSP
light: DIVMTQSPLSLPVTPGEPASISCQASESLVHSNRNTYLHWYLQKPGQSPQLLIYKVSNRFSGVPDRFSGSGSGTDFTLKISRVEAEDVGVYYCSQNTHVPPTFGQGTKVEIERTVAAPSVFIFPPSDEQLKSGTASVVCLLNNFYPREAKVQWKVDNALQSGNSQESVTEQDSKDSTYSLSSTLTLSKADYEKHKVYACEVTHQGLSSPVTKSFNRGEC
notes: mutation in both H chains; also called Ho Ab S337_07I; S337I
On to B8, for which the Ho/Con_1a was 105 % of HoCon Ab (=100).

B9: GpH7-B3 variant S337_10E/GpL16-k0 (antibody, human IgG1, kappa)
heavy: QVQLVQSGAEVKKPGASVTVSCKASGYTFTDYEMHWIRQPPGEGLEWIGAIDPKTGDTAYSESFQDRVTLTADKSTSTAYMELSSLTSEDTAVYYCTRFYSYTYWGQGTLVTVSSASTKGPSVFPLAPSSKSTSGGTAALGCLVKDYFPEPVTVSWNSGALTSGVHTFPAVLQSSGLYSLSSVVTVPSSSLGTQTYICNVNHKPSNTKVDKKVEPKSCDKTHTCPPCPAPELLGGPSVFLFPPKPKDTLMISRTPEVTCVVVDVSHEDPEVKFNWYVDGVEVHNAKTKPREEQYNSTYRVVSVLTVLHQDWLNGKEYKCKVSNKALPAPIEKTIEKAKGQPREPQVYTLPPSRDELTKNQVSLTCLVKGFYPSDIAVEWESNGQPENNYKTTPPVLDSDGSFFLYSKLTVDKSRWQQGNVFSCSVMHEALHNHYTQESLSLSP
light: DIVMTQSPLSLPVTPGEPASISCQASESLVHSNRNTYLHWYLQKPGQSPQLLIYKVSNRFSGVPDRFSGSGSGTDFTLKISRVEAEDVGVYYCSQNTHVPPTFGQGTKVEIERTVAAPSVFIFPPSDEQLKSGTASVVCLLNNFYPREAKVQWKVDNALQSGNSQESVTEQDSKDSTYSLSSTLTLSKADYEKHKVYACEVTHQGLSSPVTKSFNRGEC
notes: mutation in both H chains; also called Ho Ab S337_10E; S337E
In the case of B9, the Ho/Con_1a was 104 % of HoCon Ab (=100).

B10: GpH7-B3 variant S337_19Q/GpL16-k0 (antibody, human IgG1, kappa)
heavy: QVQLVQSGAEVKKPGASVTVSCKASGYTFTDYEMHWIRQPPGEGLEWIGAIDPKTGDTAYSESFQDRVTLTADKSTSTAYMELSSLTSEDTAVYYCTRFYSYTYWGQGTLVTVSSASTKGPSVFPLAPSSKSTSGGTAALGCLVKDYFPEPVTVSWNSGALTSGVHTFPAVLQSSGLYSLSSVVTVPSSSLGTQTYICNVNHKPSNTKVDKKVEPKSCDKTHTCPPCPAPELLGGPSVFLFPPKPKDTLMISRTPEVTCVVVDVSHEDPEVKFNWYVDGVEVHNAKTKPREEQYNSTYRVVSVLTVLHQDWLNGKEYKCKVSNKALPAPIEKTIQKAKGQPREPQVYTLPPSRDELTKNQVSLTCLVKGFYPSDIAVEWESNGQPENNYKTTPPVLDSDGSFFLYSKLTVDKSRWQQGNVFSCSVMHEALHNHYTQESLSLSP
light: DIVMTQSPLSLPVTPGEPASISCQASESLVHSNRNTYLHWYLQKPGQSPQLLIYKVSNRFSGVPDRFSGSGSGTDFTLKISRVEAEDVGVYYCSQNTHVPPTFGQGTKVEIERTVAAPSVFIFPPSDEQLKSGTASVVCLLNNFYPREAKVQWKVDNALQSGNSQESVTEQDSKDSTYSLSSTLTLSKADYEKHKVYACEVTHQGLSSPVTKSFNRGEC
notes: mutation in both H chains; also called Ho Ab S337_19Q; S337Q
As for B10, the Ho/Con_1a was 105 % of HoCon Ab (=100).

B11: GpH7-B3 variant T335_05P/GpL16-k0 (antibody, human IgG1, kappa)
heavy: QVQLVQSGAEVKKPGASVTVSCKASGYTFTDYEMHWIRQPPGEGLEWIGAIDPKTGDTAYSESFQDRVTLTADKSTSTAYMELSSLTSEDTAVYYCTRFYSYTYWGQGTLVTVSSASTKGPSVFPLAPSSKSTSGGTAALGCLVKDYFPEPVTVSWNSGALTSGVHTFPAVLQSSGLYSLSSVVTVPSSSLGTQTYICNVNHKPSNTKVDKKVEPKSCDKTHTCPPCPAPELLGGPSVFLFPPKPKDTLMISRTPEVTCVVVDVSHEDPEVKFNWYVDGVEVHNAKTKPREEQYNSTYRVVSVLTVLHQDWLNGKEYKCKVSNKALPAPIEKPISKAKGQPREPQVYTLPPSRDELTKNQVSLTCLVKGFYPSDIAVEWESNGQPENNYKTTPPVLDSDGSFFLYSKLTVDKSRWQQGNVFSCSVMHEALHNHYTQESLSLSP
light: DIVMTQSPLSLPVTPGEPASISCQASESLVHSNRNTYLHWYLQKPGQSPQLLIYKVSNRFSGVPDRFSGSGSGTDFTLKISRVEAEDVGVYYCSQNTHVPPTFGQGTKVEIERTVAAPSVFIFPPSDEQLKSGTASVVCLLNNFYPREAKVQWKVDNALQSGNSQESVTEQDSKDSTYSLSSTLTLSKADYEKHKVYACEVTHQGLSSPVTKSFNRGEC
notes: mutation in both H chains; also called Ho Ab T335_05P; T335P
For B11, the Ho/Con_1a was 106 % of HoCon Ab (=100).

The record behind these values is patent publication US20180155451A1 (published 2018).
